# Data as given in US20180186871A1 (SINGAPORE HEALTH SERVICES PTE, published 2018).
# T1: human IL-11 (human, UniProt P20809 22-199)
# T1 construct: In the ELISAs this is recombinant human IL-11 coated on the plate (expressed in CHO cells as Fc-tagged and tag-free versions); In the fibroblast assays it is the IL-11 produced by human fibroblasts after TGFβ1 stimulation; also called recombinant human IL-11 (GenScript Cat. No. Z03108-1); interleukin 11
# T1 sequence (looked up): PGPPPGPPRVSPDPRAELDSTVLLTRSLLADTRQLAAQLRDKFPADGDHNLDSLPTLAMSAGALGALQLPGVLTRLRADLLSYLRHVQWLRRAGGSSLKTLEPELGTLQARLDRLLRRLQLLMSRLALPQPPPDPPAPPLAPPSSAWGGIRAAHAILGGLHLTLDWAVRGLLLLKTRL
# B1: Yu33-A2 (IgG) (antibody, V domains shown)
# VH: QLQQSGPGLVKPSQTLSLTCAISGDSVSSNSAAWNWIRQSPSRGLEWLGRTYYRSKWYNDYAVSVKSRITINPDTSKNQFTLQLNSVTPDDTAVYYCARGTRGYFDYWGQGTLVTVSS
# VL: DVVMTQSPSSLSASVGDRVTITCRASQDVGRYVAWYQQKVGKVPRLLIYAASALQSGVPSRFSGTASETSFTLTISSLQPEDVASYYCQQYRSAPLAFGGGTGVEIK
# notes: also called #1
# Molecular target: T1, human IL-11
# Assay: indirect ELISA on plate-coated recombinant human IL-11 (1 µg/mL), detection with HRP anti-human IgG (Fc-specific), absorbance 450-570 nm
binder,measurement,value
B1,binding result,no binding (tested: 800 ng/ml)
